Results on 1 molecule are retold here after US20090075898A1, “Complement C3A Derived Peptides and Uses Thereof” (Yeda Research and Development Co. Ltd. at the Weizmann …, priority 2005, published 2009).

Assay [1] deals with bone marrow derived mast cells (BMMC). Kind of assay: Secretory response (β-hexosaminidase release) of bone marrow derived mast cells. The format is cell-based, mouse. How it is done:
Cells. Bone marrow derived mast cells (BMMC) were prepared from Balb/c mice as described by Nagao et al. (Science 212: 333-335, 1981). After 3 weeks, an approximately 95% pure mast cell population was obtained, showing high expression of FcεRI and stem cell factor receptor (c-kit), as measured by flow cytometry.
(§1) Secretory response of mast cells.
Similar experiments were carried out using bone-marrow derived mast cells (BMMC). […] The control peptide of the sequence DVSNYITR had no effect on either system.

Assay [2] concerns rat peritoneal mast cells (RPMC). Kind of assay: Secretory response (β-hexosaminidase release) of rat peritoneal mast cells. The class given is cell-based. The note with it: non-sensitized cells, no antigen.
Text: Rat peritoneal mast cells (RPMC) were isolated as previously described (Kim et al. J. Immunol. 162:4960-4965, […]). Mast cell preparations were ca. 95% pure, as evaluated by flow cytometric monitoring of FcεRI surface expression. Compound 48/80, a specific activator of serosal type mast cells elicited about 50% release of the total β-hexosaminidase content of the isolated rat peritoneal mast cells.
as §1
While mucosal type mast cells are non-responsive to peptidergic stimuli, the serosal type ones have been known for a long time to be stimulated by cationic secretagogues. The anaphylatoxic peptides C3a and C5a initiate the cells' secretory response by binding to their respective receptors expressed by serosal type mast cells. To investigate the effect of the peptides on this mast cell-type, RPMC were used. As expected, these cells did respond to both C5a and C3a (Table 2). However, degranulation was inhibited when peptides C3a7 or C3a9 were added to the IgE-sensitized RPMC and stimulated, 5 min later with a suboptimal antigen dose (Table 2).

Assay [3] relates to RBL-2H3 cells. Particulars: Erdei et al. 1995, 1999; cited from earlier work.
Assay [4] concerns rat FcεRI β chain. The assay can be described thus: Surface plasmon resonance, immobilized extracellular loop peptides of rat FcεRI β chain. The note with it: SPR. Background: In SPR one partner is held on a chip, and binding of the other changes the refractive index at the surface.
Assay [5] deals with human FcεRI β chain. The assay can be described thus: Surface plasmon resonance, immobilized extracellular loop peptides of human FcεRI β chain. Particulars: SPR.

B1: C5a: complement activation product C5a, anaphylatoxic peptide, isolated; used as control (protein)
chain: TLQKKIEEIAAKYKHSVVKKCCYDGACVNNDETCEQRAARISLGPRCIKAFTECCVVASQLRANISHKDMQLGR
Consider B1, for which the “Inhibition of IgE-mediated secretory response of BMMC” value in assay [1] is “had no effect”. Also, the “Stimulation of secretory response of RPMC by the peptide itself” value in assay [2] is on record as “did respond”. Also, in assay [3], the “Inhibition of IgE-mediated degranulation of RBL-2H3 cells (literature)” value is given as “has no effect”. The “Reaction with any tested sequences (1st and 2nd loop) of rat FcεRI β-chain” value in assay [4] is recorded as “did not react”. Moreover, in assay [5], the “Reaction with any tested sequences (1st and 2nd loop) of human FcεRI β-chain” value is recorded as “did not react”.
